Measured values reported in patent US20070286806A1, “Methods and Compositions for Modulating a Steroid Receptor” (Mount Sinai Hospital, priority 2004, published 2007).
Residues, ends and D or L forms follow the SMILES beside them. *: point of attachment. Cbz = O=C(OCc1ccccc1)*

T1: His-PSF (6xHis-tagged full length human PSF, amino acid 1-707) (human, UniProt P23246 1-707)
T1 construct: Expressed in 293T or SHM cells (co-immunoprecipitation, reporter assays) or translated in rabbit reticulocyte lysate with ^35S methionine (GST pulldown); 1 only as 'e.g.' of wild type PSF; also called His tagged PSF; His tagged PSF1-707; not shown: N-terminal 6xHis tag of vector pcDNA3.1 6xHis
T1 sequence: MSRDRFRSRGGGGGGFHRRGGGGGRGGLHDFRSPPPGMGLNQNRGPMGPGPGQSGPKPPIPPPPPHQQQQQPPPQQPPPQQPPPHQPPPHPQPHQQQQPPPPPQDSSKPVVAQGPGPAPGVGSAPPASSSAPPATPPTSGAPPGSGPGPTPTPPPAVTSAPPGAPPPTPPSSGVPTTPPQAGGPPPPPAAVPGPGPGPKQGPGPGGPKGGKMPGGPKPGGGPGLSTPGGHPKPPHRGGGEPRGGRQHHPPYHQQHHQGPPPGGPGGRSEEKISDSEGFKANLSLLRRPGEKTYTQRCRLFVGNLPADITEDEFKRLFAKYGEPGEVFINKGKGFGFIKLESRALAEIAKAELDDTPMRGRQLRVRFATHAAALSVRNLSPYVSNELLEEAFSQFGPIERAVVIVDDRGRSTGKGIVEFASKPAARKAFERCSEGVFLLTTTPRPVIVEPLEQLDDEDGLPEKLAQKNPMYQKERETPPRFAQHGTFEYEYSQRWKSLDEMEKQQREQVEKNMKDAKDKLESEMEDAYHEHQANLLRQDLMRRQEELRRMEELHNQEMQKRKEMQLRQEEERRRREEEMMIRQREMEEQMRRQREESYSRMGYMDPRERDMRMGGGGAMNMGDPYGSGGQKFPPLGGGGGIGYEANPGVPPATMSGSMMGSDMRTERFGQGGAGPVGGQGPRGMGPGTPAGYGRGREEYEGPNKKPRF


Assays:
[1] = tested on: PRA and PRB protein; assay: PR protein level by western blot of whole cell lysate after co-transfection in SHM cells; assay type: cell-based
Procedure: FIG. 5. […] (A) SHM cells were transient transfected (eighteen hours) with PRA or PRB expression vector with or without increasing doses (0.2, 0.5, 1.0 and 2.0 μg) of His-PSF vector as indicated. Whole cell lysate was analyzed by western blot with PR or His tag antibody. NS=non-specific binding. (B) SHM cells were transient transfected (eighteen hours) with PRA or PRB expression vector together with 2.0 μg His tagged PSF1-707 or truncated PSF1-662. Culture media was added with or without 60 nM MG132 (Z-Leu-Leu-Leu-a1) as indicated for another 6 hours. Whole cell lysate was analyzed by western blot with PR or His tag antibody. Gβ protein was also detected as the cell lysate loading control.
For immunoprecipitation of the endogenous PR and PSF, T47D cells cultured in 150 mm dishes were lysed in 800 μl NETN buffer containing 150 mM NaCl plus protease inhibitor cocktail. Cell lysate were then incubated with 5 μg of PR or PSF, or control mouse IgG at 4° C. overnight, followed by the addition of 30 μl of protein A/G PLUS-agarose beads (Santa Cruz) for another two hours at 4° C. Resins were washed with NETN containing 250 mM NaCl and eluted with 1×Laemmli buffer. The eluted proteins along with the whole cell extract were western blotted by PR or PSF antibody. • GST pulldown assay: GST pulldown assay was performed as previously described (20). GST and its fusion proteins were first immobilized to glutathione-Sepharose 4B affinity matrix. The matrix was then incubated at 4° C. overnight with rabbit reticulocyte lysate (Promega) containing PR or His-PSF transcribed and translated in presence of ^35S methionine. The matrix was washed three times with cold NETN buffer before adding 1 ×Laemmli buffer to elute associated proteins. The eluted proteins were separated on 10% SDS-PAGE gel. Gels were treated with Enhancer (NEN, Boston, US) dried and analyzed by autoradiography. • Cell culture and transient transfection: SHM cells and 293T cells were maintained in DMEM plus 5% FCS (Sigma) as described before (22). For experiments involving steroid exposure, the medium was substituted with phenol red free DMEM containing 5% charcoal-treated fetal bovine serum (Hyclone, Utah, USA). Transfection was performed according to manufacturers protocol (Fementas). Cells were seeded at a density to achieve 60-80% confluency the following day. The DNA and transfection reagent were mixed and added to the medium. Cell lysates were collected at least 30 hours after transfection. For luciferase assay, cells were collected in 200 μl of lysis buffer (Promega) of which 10μl was used for the luciferase and β-Gal activity assays respectively. Luciferase activity was determined by using the luciferin reagent (Promega) according to manufacture's protocol. […]

[2] = tested on: PR protein; assay: PR protein levels on over-expression of PSF in 293T cells; assay type: cell-based; conditions: 293T cells
[3] = biological target: T1, His-PSF (6xHis-tagged full length human …); assay: GST pulldown of ^35S-labeled PSF, autoradiography
Procedure: Bands were excised, reduced, allcylated and digested in-gel with trypsin as described (21). Tryptic peptides were extracted from the gel, desalted using ZipTip desalting columns (Millipore, Bedford, Mass.), equilibrated in 5% formic acid, washed with equilibration buffer and eluted in a solution of 5% formic acid and 60% methanol. Tandem mass spectrometry analysis was performed by using a nano-electrospray ionization (ESI) source (Protana A/S) coupled to a high-performance hybrid quadrapole time-of-flight API QSTARTM Pulsar mass spectrometer (MDS-Sciex, Concord, ON, Canada). After tryptic ion candidates were identified, product ion spectra were generated by collision-induced dissociation. For product ion scans, the collision energy was determined experimentally. Sequence and mass information of the peptides was used to screen the NRDB and dbEST databases. Databases were searched using the Mascot MS/MS search engine (Matrix Science, London, UK). […] Cells were plated at 150 mm diameter dish and grown to 60% confluent before transfection. Total of 15 μg plasmid was transfected by Exgen 500 (Fermantas). Eighteen hours after transfection, cells were washed two times ice-cold phosphate-buffered saline (PBS) then lysed in NETN buffer plus protease inhibitor cocktail. Protein concentration of the whole cell lysate (WCL) was determined by the Bradford assay and the WCL was diluted to 1 mg/ml in NETN. A 900 μl aliquot of WCL was incubated for overnight at 4° C. in suspension with either anti-His tag or anti-PR antibody, followed by the addition of 30 μl of protein A/G PLUS-agarose beads (Santa Cruz) for another two hours at 4° C. Resins were washed with NETN and eluted with 1×Laemmli buffer, boiled, and centrifuged. The supernatant was separated by SDS- 8% PAGE, electrophoresed to PVDF membrane, and visualized by ECL.

Molecule | binding result [3] | further results
CC(C)C[C@@H](C=O)NC(=O)[C@H](CC(C)C)NC(=O)[C@H](CC(C)C)NC(=O)OCc1ccccc1 [MG132, Z-Leu-Leu-Leu-a1, reference compound] (Cbz-Leu-Leu-Leu-aldehyde) |  | effect on PSF-induced loss of PR protein ([1]; final concentration of 60 μM for an additional 6 hours): block the loss of PR protein; effect on PSF-induced reduction of PR protein levels [2]: rescued
GST-PR fusion protein, amino acids 650-933 of PRB (other, also called other segments of PR; not shown: glutathione-S-transferase (GST) of vector pGEX 5X-2) ALDAVALPQPLGVPNESQALSQRFTFSPGQDIQLIPPLINLLMSIEPDVIYAGHDNTKPDTSSSLLTSLNQLGERQLLSVVKWSKSLPGFRNLHIDDQITLIQYSWMSLMVFGLGWRSYKHVSGQMLYFAPDLILNEQRMKESSFYSLCLTMWQIPQEFVKLQVSQEEFLCMKVLLLLNTIPLEGLRSQTQFEEMRSSYIRELIKAIGLRQKGVVSSSQRFYQLTKLLDNLHDLVKQLHLYCLNTFIQSRALSVEFPEMMSEVIAAQLPKILAGMVKPLLFHKK | no binding | 
GST-PR fusion protein, amino acids 456-556 of PRB (other, also called other segments of PR; not shown: glutathione-S-transferase (GST) of vector pGEX 5X-2) STLECILYKAEGAPPQQGPFAPPPCKAPGASGCLLPRDGLPSTSASAAAAGAAPALYPALGLNGLPQLGYQAAVLKEGLPQVYPPYLNYLRPDSEASQSPQ | no binding | 
GST-PR fusion protein, amino acids 164-456 of PRB (other, also called other segments of PR; not shown: glutathione-S-transferase (GST) of vector pGEX 5X-2) LMSRSGCKVGDSSGTAAAHKVLPRGLSPARQLLLPASESPHWSGAPVKPSPQAAAVEVEEEDSSESEESAGPLLKGKPRALGGAAAGGGAAACPPGAAAGGVALVPKEDSRFSAPRVALVEQDAPMAPGRSPLATTVMDFIHVPILPLNHALLAARTRQLLEDESYDGGAGAASAFAPPRTSPCASSTPVAVGDFPDCAYPPDAEPKDDAYPLYSDFQPPALKIKEEEEGAEASARSPRSYLVAGANPAAFPDFPLGPPPPLPPRATPSRPGEAAVTAAPASASVSSASSSGS | no binding | 
PSF-1-662: truncated form of PSF, amino acids 1-662 (protein, UniProt P23246 1-662, looked up, fragment) MSRDRFRSRGGGGGGFHRRGGGGGRGGLHDFRSPPPGMGLNQNRGPMGPGPGQSGPKPPIPPPPPHQQQQQPPPQQPPPQQPPPHQPPPHPQPHQQQQPPPPPQDSSKPVVAQGPGPAPGVGSAPPASSSAPPATPPTSGAPPGSGPGPTPTPPPAVTSAPPGAPPPTPPSSGVPTTPPQAGGPPPPPAAVPGPGPGPKQGPGPGGPKGGKMPGGPKPGGGPGLSTPGGHPKPPHRGGGEPRGGRQHHPPYHQQHHQGPPPGGPGGRSEEKISDSEGFKANLSLLRRPGEKTYTQRCRLFVGNLPADITEDEFKRLFAKYGEPGEVFINKGKGFGFIKLESRALAEIAKAELDDTPMRGRQLRVRFATHAAALSVRNLSPYVSNELLEEAFSQFGPIERAVVIVDDRGRSTGKGIVEFASKPAARKAFERCSEGVFLLTTTPRPVIVEPLEQLDDEDGLPEKLAQKNPMYQKERETPPRFAQHGTFEYEYSQRWKSLDEMEKQQREQVEKNMKDAKDKLESEMEDAYHEHQANLLRQDLMRRQEELRRMEELHNQEMQKRKEMQLRQEEERRRREEEMMIRQREMEEQMRRQREESYSRMGYMDPRERDMRMGGGGAMNMGDPYGSGGQKFPPLGGGGGIGYEANPGVPPATMSGSMMGSDM |  | PR proteins after co-transfection with PRB/PRA ([1]; after 24 hours): total loss of PR proteins
